According to article PMC8463545 (2021):

T1: RpfG-MBP (Lysobacter enzymogenes)
T1 chain: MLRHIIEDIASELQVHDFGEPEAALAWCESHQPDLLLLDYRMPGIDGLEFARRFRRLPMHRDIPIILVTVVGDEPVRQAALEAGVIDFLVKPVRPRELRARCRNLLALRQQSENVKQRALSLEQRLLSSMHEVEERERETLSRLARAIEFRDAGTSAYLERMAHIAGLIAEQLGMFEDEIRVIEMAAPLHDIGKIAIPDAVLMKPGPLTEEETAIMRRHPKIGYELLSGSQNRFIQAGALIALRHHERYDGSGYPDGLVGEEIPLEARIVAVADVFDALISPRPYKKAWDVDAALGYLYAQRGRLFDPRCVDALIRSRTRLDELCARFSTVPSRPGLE


Columns and labels:
RpfG-MBP [1] = target: T1, RpfG-MBP; assay: SPR
RpfG-MBP [2] = target: T1, RpfG-MBP; assay: SPR

| Binder | Ka (RpfG-MBP [1]) [M⁻¹] | koff (RpfG-MBP [2]) [s⁻¹] |
| --- | --- | --- |
| HtsH1C-Flag-His (domain or fragment, Phosphorylated as purified (CIAP-sensitive). Limits from the expression primers: (M)AKTRFL... to ...LFEREA, just before the His-kinase domain to the C-terminus. The start codon Met and Flag/His tags are left out. Positions are inferred from the candidate's domain features. The entry is probably not from strain OH11.) not shown | 1.5e+07 | 0.00118 |
| HtsH2C-HA-His (domain or fragment, Phosphorylated as purified (CIAP-sensitive). Primers give (M)AKTRFL... to ...DAADAP (C-terminus). The candidate lists no features, so the start is estimated from the paralogues' fragment lengths and may be off by a few residues. Assignment of this entry to HtsH2 is inferred. The entry is probably not from strain OH11.) not shown | 3.34e+06 | 0.00129 |
| HtsH3C-Myc-His (domain or fragment, Phosphorylated as purified (CIAP-sensitive). Primers give (M)AKTRFL... to ...ARRGEG (C-terminus). Positions are inferred from the candidate's His-kinase domain start. Assignment of this entry to HtsH3 is inferred. The entry is probably not from strain OH11.) not shown | 5.96e+06 | 0.000738 |
